Laboratory results: patent publication US20250270315A1
Like-named read-outs stand apart in the source and are kept apart here.

Experiments:
[1] = biological target: cyno SIRPα stably expressed on CHOK1 cells (cyno); experiment: FACS, CHOK1-cyno SIRPα cells
[2] = biological target: human SIRPα v2 expressed on cells (CHOK1 stable line KYinno KC-1720) (human) (UniProt P78324); experiment: FACS, CHOK1-hSIRPα v2 cells
[3] = biological target: cyno SIRPα stably expressed on CHOK1 cells (cyno); experiment: FACS, CHOK1-Cyno SIRPα cells
[4] = biological target: Human SIRPα v2 (antigen of the Octet and Biacore affinity measurements) (human) (UniProt P78324); experiment: BLI (Octet), 1:1 binding model
[5] = biological target: human SIRPα v2 expressed on cells (CHOK1 stable line KYinno KC-1720) (human) (UniProt P78324); experiment: FACS, CHOK1-hSIRPα v2 cells; remark: listed apart in the source
[6] = biological target: Human SIRPα v2 (antigen of the Octet and Biacore affinity measurements) (human) (UniProt P78324); experiment: SPR (Biacore), 1:1 binding model
[7] = biological target: human SIRPα v2 expressed on cells (CHOK1 stable line KYinno KC-1720) (human) (UniProt P78324); experiment: competitive FACS, mFc-CD47 ECD on CHOK1-human SIRPα v2 cells

B1: 005 (antibody, V domains shown)
VH: EVKLVESGGGLVQPGGSLSLSCAASGFTFTDYYMSWVRQPPGKALEWLGFIKNEANGYTTESSASVKGRFTISRDNSQSILYLQMNALRAEDSATYYCARYDYYGSNYNWYFDAWGTGTTVTVSS
VL: DIVMTQSQKFMSPSVGDRVSITCKASQNVRTAVAWYQQKPGQSPKVLIHLASKRHTGVPDRFTGSGSGTDFTLTISNVQSEDLADYFCLQHWIHPLTFGAGTKLELK
MFI at 10 nM [1]: 5970 MFI

B2: 005c (antibody, V domains shown)
VH: EVKLVESGGGLVQPGGSLSLSCAASGFTFTDYYMSWVRQPPGKALEWLGFIKNEANGYTTESSASVKGRFTISRDNSQSILYLQMNALRAEDSATYYCARYDYYGSNYNWYFDAWGTGTTVTVSS
VL: DIVMTQSQKFMSPSVGDRVSITCKASQNVRTAVAWYQQKPGQSPKVLIHLASKRHTGVPDRFTGSGSGTDFTLTISNVQSEDLADYFCLQHWIHPLTFGAGTKLELK
EC50 [2]: 5.47 nM | TOP MFI [2]: 53300 MFI

B3: 042 (antibody, V domains shown)
VH: QIQLVQSGPELKKPGETVKISCRASGYTFTTYGMSWVKQAPGKGLRWMGWINTYSGVSTCADDFKGRFAFSLETSATTAYLQIHNLTNEDTATYFCARDPHSYGNSPAWFPYWGQGTLVTVSA
VL: DIVMTQSQKFMSTTIRDRVSITCKASQNVGISVAWYQQKSGQSPKLLIYSASNRYTGVPDRFTGSGSGTDFTLTISNMQSEDLADYFCQQYSSYPLTFGSGTKLAIK
MFI at 10 nM [1]: 6850 MFI

B4: 042c (antibody, V domains shown)
VH: QIQLVQSGPELKKPGETVKISCRASGYTFTTYGMSWVKQAPGKGLRWMGWINTYSGVSTCADDFKGRFAFSLETSATTAYLQIHNLTNEDTATYFCARDPHSYGNSPAWFPYWGQGTLVTVSA
VL: DIVMTQSQKFMSTTIRDRVSITCKASQNVGISVAWYQQKSGQSPKLLIYSASNRYTGVPDRFTGSGSGTDFTLTISNMQSEDLADYFCQQYSSYPLTFGSGTKLAIK
EC50 [2]: 4.21 nM | TOP MFI [2]: 54800 MFI | EC50 [3]: 2.95 nM | TOP MFI [3]: 32400 MFI | Kd [4]: 6.14 nM | koff [4]: 0.00378 s⁻¹ | kon [4]: 616000 M⁻¹ s⁻¹

B5: 071 (antibody, V domains shown)
VH: QIQLVQSGPELKKPGETVKISCKASGYTFTTYGMSWVKQAPGKGLKWMVWINTYSGVPTYADDFQGRFAFSLETSASTSYLQINNLRNEDTATYFCARDPHYYGTSPAWFAYWGQGTLVTVSA
VL: DIVMTQSQKFMSTTIGDRVIITCKASQIVGIAVAWYQQKPGQSPKLLIYSASNRFTGVPDRFTGSGSGTDFTLTISNMQSEDLADYFCQQYSTYPFTFGSGTKLEIK
MFI at 10 nM [1]: 8370 MFI

B6: 073c (antibody, V domains shown)
VH: QIQLVQSGPELKKPGETVKISCKASGYTFTTYGMSWVKQAPGKGLKWMVWINTYSGVPTYADDFKGRFAFSLETSASTSYLQINNLKNEDTATYFCARDPHYYGSSPAWFVYWGQGTLVTVSA
VL: DIVMTQSQKFMSTTIGDRVSITCEASQIVGIAVAWYQQKPGQSPKLLIYSASNRYTGVPDRFTGSGSGTDFTLTISNMQSEDLANYFCQQYSAYPFTFGSGTKLEVK
EC50 [2]: 2.12 nM | TOP MFI [2]: 47300 MFI | EC50 [3]: 1.76 nM | TOP MFI [3]: 30700 MFI

B7: 073 (antibody, V domains shown)
VH: QIQLVQSGPELKKPGETVKISCKASGYTFTTYGMSWVKQAPGKGLKWMVWINTYSGVPTYADDFKGRFAFSLETSASTSYLQINNLKNEDTATYFCARDPHYYGSSPAWFVYWGQGTLVTVSA
VL: DIVMTQSQKFMSTTIGDRVSITCEASQIVGIAVAWYQQKPGQSPKLLIYSASNRYTGVPDRFTGSGSGTDFTLTISNMQSEDLANYFCQQYSAYPFTFGSGTKLEVK
MFI at 10 nM [1]: 7850 MFI

B8: 071c (antibody, V domains shown)
VH: QIQLVQSGPELKKPGETVKISCKASGYTFTTYGMSWVKQAPGKGLKWMVWINTYSGVPTYADDFQGRFAFSLETSASTSYLQINNLRNEDTATYFCARDPHYYGTSPAWFAYWGQGTLVTVSA
VL: DIVMTQSQKFMSTTIGDRVIITCKASQIVGIAVAWYQQKPGQSPKLLIYSASNRFTGVPDRFTGSGSGTDFTLTISNMQSEDLADYFCQQYSTYPFTFGSGTKLEIK
EC50 [2]: 3.31 nM | TOP MFI [2]: 46700 MFI | EC50 [3]: 2.64 nM | TOP MFI [3]: 32300 MFI

B9: 059c (antibody, V domains shown)
VH: QVQLQQSGPELVKPGASVKMSCKASGYTFSEYVLSWVKQRTGQGLEWIGEIYPGTITTYYNEKFKGKATLTADKSSNTAYIQLTSLTSEDSAVYFCGRFYDYDGGWFAYWGQGTLLTVSA
VL: ENVLTQSPEKMAVSLGQKVTMTCSASSSVSSSDLHWYQQKSGASPKPLIHGTSNLASGVPARFSGSGSGTSYSLTISSVEAEDAATYYCQQWSGYPWTFGGGTNLEIK
EC50 [2]: 12 nM | TOP MFI [2]: 19600 MFI | EC50 [3]: 17.2 nM | TOP MFI [3]: 17400 MFI

B10: 059 (antibody, V domains shown)
VH: QVQLQQSGPELVKPGASVKMSCKASGYTFSEYVLSWVKQRTGQGLEWIGEIYPGTITTYYNEKFKGKATLTADKSSNTAYIQLTSLTSEDSAVYFCGRFYDYDGGWFAYWGQGTLLTVSA
VL: ENVLTQSPEKMAVSLGQKVTMTCSASSSVSSSDLHWYQQKSGASPKPLIHGTSNLASGVPARFSGSGSGTSYSLTISSVEAEDAATYYCQQWSGYPWTFGGGTNLEIK
MFI at 10 nM [1]: 5840 MFI

B11: hu025.021 (antibody, V domains shown)
VH: EVQLVQSGAEVKKPGATVKISCKVSGFNIKDYYMHWVQQAPGKGLEWIGRIDPEDAETKYAPKFQGRVTITADTSTNTAYMELSSLRSEDTAVYYCDRGLAYWGQGTLVTVSS
VL: EIVLTQSPATLSLSPGERATLSCSASSSVSSSYLYWYQQKPGQAPKLWIYSTSNLASGIPARFSGSGSGTDYTLTISSLEPEDFAVYYCHQWSSYPYTFGQGTKLEIK
EC50 [5]: 0.87 nM | TOP MFI [5]: 46400 MFI | Kd [6]: 3.39 nM | koff [6]: 0.0056 s⁻¹ | kon [6]: 1.65e+06 M⁻¹ s⁻¹

B12: hu025.059 (antibody, V domains shown)
VH: EVQLVQSGAEVKKPGATVKISCKASGFNIKDYYMHWVQQAPGKGLEWIGRIDPEDAETKYAPKFQGRVTITADTSTNTAYMELSSLRSEDTAVYYCDRGLAYWGQGTLVTVSS
VL: EIVLTQSPATLSLSPGERATLSCSASSSVSSSYLYWYQQKPGQAPKLWIYSTSNLASGIPARFSGSGSGTDYTLTISSLEPEDFAVYYCHQWSSYPYTFGQGTKLEIK
EC50 [5]: 0.75 nM | TOP MFI [5]: 47300 MFI | Kd [6]: 2.76 nM | koff [6]: 0.00392 s⁻¹ | kon [6]: 1.42e+06 M⁻¹ s⁻¹

B13: hu025.060 (antibody, V domains shown)
VH: EVQLVQSGAEVKKPGATVKISCKASGFNIKDYYMHWVQQAPGKGLEWIGRIDPEDAETKYAPKFQGRVTITADTSTNTAYMELSSLRSEDTAVYYCDRGLAYWGQGTLVTVSS
VL: EIVLTQSPATLSLSPGERATLSCSASSSVSSSYLYWYQQKPGQAPKLWIYSTSNLASGIPARFSGSGSGTDFTLTISSLEPEDFAVYYCHQWSSYPYTFGQGTKLEIK
EC50 [5]: 0.8 nM | TOP MFI [5]: 48800 MFI | IC50 [7]: 0.77 nM | TOP blocking (%) [7]: 99.8% | Kd [6]: 2.34 nM | koff [6]: 0.00344 s⁻¹ | kon [6]: 1.47e+06 M⁻¹ s⁻¹

B14: hu025.033 (antibody, V domains shown)
VH: EVQLVQSGAEVKKPGATVKISCKVSGFNIKDYYMHWVQQAPGKGLEWIGRIDPEDAETKYAPKFQGRVTITADTSTDTAYMELSSLRSEDTAVYYCDRGLAYWGQGTLVTVSS
VL: EIVLTQSPATLSLSPGERATLSCSASSSVSSSYLYWYQQKPGQAPKLWIYSTSNLASGIPARFSGSGSGTDYTLTISSLEPEDFAVYYCHQWSSYPYTFGQGTKLEIK
EC50 [5]: 0.62 nM | TOP MFI [5]: 39800 MFI

B15: hu025.023 (antibody, V domains shown)
VH: EVQLVQSGAEVKKPGATVKISCKVSGFNIKDYYMHWVQQAPGKGLEWIGRIDPEDAETKYAPKFQGRVTITADTSTNTAYMELSSLRSEDTAVYYCDRGLAYWGQGTLVTVSS
VL: EIVLTQSPATLSLSPGERATLSCSASSSVSSSYLYWYQQKPGQAPKLWIYSTSNLASGIPARFSGSGSGTDFTLTISSLEPEDFAVYYCHQWSSYPYTFGQGTKLEIK
EC50 [5]: 0.81 nM | TOP MFI [5]: 45800 MFI | IC50 [7]: 0.75 nM | TOP blocking (%) [7]: 100% | Kd [6]: 2.78 nM | koff [6]: 0.00492 s⁻¹ | kon [6]: 1.77e+06 M⁻¹ s⁻¹

B16: 025 (antibody, V domains shown)
VH: EVQLQQSGAELVKPGASVKLSCTASGFNIKDYYMHWVKQRTEQGLEWIGRIDPEDGETKYAPKFQGKATITADTSSNTAYLQLSSLTSEDTAVYYCDRGLAYWGQGTLVTVSA
VL: QIVLTQSPAIMSASPGEKVTLTCSASSSVSSSYLYWYQQKPGSSPKLWIYSTSNLASGVPARFSGSGSGTSYSLTISSMEAEDAASYFCHQWSSYPYTFGGGTKLEIK
MFI at 10 nM [1]: 8560 MFI

B17: 015c (antibody, V domains shown)
VH: EVQLQQSGVEVVQPGASVKLSCTASGFNIEAYYMHWVKQRTEQGLEWIGRIDPEDGESKYAPKFQGKATMTADTSSSTAYLQLSSLTSDDTAVYYCVRGSYEYWGQGTTLTVSS
VL: QIVLTQSPAIMSASPGEKVTLTCSASSSVSSSYLYWYQQKPGSSPKLWIYSTSNLASGVPPRFSGSGSGTSYSLTISSMQAEDAASYFCYQWSSYPYTFGGGTKLEIK
EC50 [2]: 1.58 nM | TOP MFI [2]: 50100 MFI | EC50 [3]: 0.69 nM | TOP MFI [3]: 29700 MFI | Kd [4]: 0.937 nM | koff [4]: 0.00117 s⁻¹ | kon [4]: 1.24e+06 M⁻¹ s⁻¹

B18: 015 (antibody, V domains shown)
VH: EVQLQQSGVEVVQPGASVKLSCTASGFNIEAYYMHWVKQRTEQGLEWIGRIDPEDGESKYAPKFQGKATMTADTSSSTAYLQLSSLTSDDTAVYYCVRGSYEYWGQGTTLTVSS
VL: QIVLTQSPAIMSASPGEKVTLTCSASSSVSSSYLYWYQQKPGSSPKLWIYSTSNLASGVPPRFSGSGSGTSYSLTISSMQAEDAASYFCYQWSSYPYTFGGGTKLEIK
MFI at 10 nM [1]: 10800 MFI
